Experimental data as given in patent publication US20220235344A1, “TRYPSIN VARIANTS WITH IMPROVED ENZYMATIC PROPERTIES” (BIOPHARMA TRANSLATIONSINSTITUT DESSAU FORSCHUNGS GMBH, priority 2018, published 2022).

T1: Bz-PGGYRAHAG-OH (acyl donor) (Rattus norvegicus, UniProt P00763, D194K/K66E/Y45H/Y65H)
T1 construct: made in house; host or cells: Pichia pastoris X-33
T1 sequence (P00763 24-246 Y45H/Y65H/K66E/D194K): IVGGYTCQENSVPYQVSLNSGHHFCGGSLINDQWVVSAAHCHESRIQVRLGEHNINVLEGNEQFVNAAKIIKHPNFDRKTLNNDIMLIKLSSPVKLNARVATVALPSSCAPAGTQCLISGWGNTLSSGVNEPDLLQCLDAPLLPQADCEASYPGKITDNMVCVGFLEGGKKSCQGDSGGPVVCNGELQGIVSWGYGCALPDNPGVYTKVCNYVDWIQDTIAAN


Columns and labels:
[1] = target: T1, Bz-PGGYRAHAG-OH (acyl donor); assay: Turnover rate of the hydrolysis reaction in the absence of a nucleophilic peptide; assay type: biochemical; conditions: Zinc ions (100 μM): yes; varying Bz-PGGYRAHAG-OH, 2 μM trypsin variant, no nucleophilic peptide
Protocol: Hydrolysis reactions were performed in a solution containing varying concentrations of the acyl donor Bz-[…]-OH (0-5000 μM for Trypsiligase II, 0-1500 μM for variant A2C8), 2 μM trypsin variant, 100 mM HEPES/NaOH pH 7.8, 100 mM NaCl, 10 mM CaCl2 at 30° C. In case of Trypsiligase II the reactions were performed in the presence of 100 μM ZnCl2. The reaction was started by the addition of enzyme. For kinetic evaluation of the reaction several aliquots of the reaction mixture were quenched with 25% (v/v) acetic acid at distinct time points within 30 minutes. The composition of the reaction mixture was analyzed by UPCL using method I (see example 1). UV absorption of the N-terminal benzoyl-group (Bz-), which is present in the acyl donor as well as in the hydrolysis product, was detected at 254 nm. To determine the turnover rate of the hydrolysis reaction (kcat,HL) the initial rates for the hydrolysis reaction were plotted against the corresponding acyl donor concentration and fitted to the Michaelis Menten equation. Measurements were performed as duplicates and errors were less than 5%.

[2] = test system: anti-Her2-Fab-LC_RRKHAK(CF)/HC_YRAH (YRAH at heavy chain); assay: Orthogonal dual-modification of Her2-specific Fab-fragment, second step (heavy chain, DM1); assay type: biochemical
Excerpt: FIG. 6: Dual modification of a Fab-fragment by utilizing variation in substrate specificity of two Trypsiligase II variants. The HER2-specific Fab-fragment of Trastuzumab (anti-Her2-Fab-LC_RRKH/HC_YRAH, Heavy chain (SEQ ID NO: 2) and anti-Her2-Fab-LC_RRKH/HC_YRAH, Light chain (SEQ ID NO: 3)) was used and the respective recognition sequences genetically introduced. A) Trypsiligase II variant K7F11_H39Y/H59Y/K189D which recognizes the sequence RRKH was used in the first step for attachment of a carboxyfluorescein(CF)-bearing nucleophile. B) In the second step Trypsiligase II variant A2C8 which recognizes the sequence YRAH was used for modification with a nucleophile covalently bound to mertansine (DM1). Analysis by LC-MS. The amount of modified and unmodified Fab-fragment species for the first and second modification step are shown in MS spectrum A and B, respectively. […]
The second modification reaction of the heavy chain was performed in a solution containing 50 μM of the single modified aHer2-Fab-LC_RRKHAK(CF)/HC_YRAH, 1000 μM H-RKKAK(MCC-DM1)-OH, 5 μM A2C8, 100 mM HEPES/NaOH pH 7.8, 100 mM NaCl. […] The proportions of modified and unmodified Fab-fragment species for the first and second modification step were analyzed by LC-MS (see example 1). […] No modification upon the recognition sequence at the heavy chain had been monitored.

Molecule	kcat, HL (mkat/mol) [1]	yield of dual labeled Fab-fragment ([2]; estimated by mass spectrometry)	site of modification, second step ([2]; mass spectrometry)
Trypsiligase II (trypsin variant Y39H/Y59H/K60E/D189K) (protein) IVGGYTCQENSVPYQVSLNSGHHFCGGSLINDQWVVSAAHCHESRIQVRLGEHNINVLEGNEQFVNAAKIIKHPNFDRKTLNNDIMLIKLSSPVKLNARVATVALPSSCAPAGTQCLISGWGNTLSSGVNEPDLLQCLDAPLLPQADCEASYPGKITDNMVCVGFLEGGKKSCQGDSGGPVVCNGELQGIVSWGYGCALPDNPGVYTKVCNYVDWIQDTIAAN	602.1 mkat/mol	–	–
A2C8: Trypsiligase II + H40F, A55A, R96E, K97D, L99F, N143E, E151Y, S190V, Q192A, S214G, G219Q, A221T (protein) IVGGYTCQENSVPYQVSLNSGHFFCGGSLINDQWVVSAAHCHESRIQVRLGEHNINVLEGNEQFVNAAKIIKHPNFDEDTFNNDIMLIKLSSPVKLNARVATVALPSSCAPAGTQCLISGWGETLSSGVNYPDLLQCLDAPLLPQADCEASYPGKITDNMVCVGFLEGGKKVCAGDSGGPVVCNGELQGIVGWGYQCTLPDNPGVYTKVCNYVDWIQDTIAAN	–	approximately 75%	exclusively modification at the C-terminal end of the heavy chain
